For one substance, stoichiometry N (Impβ per capsid), percent of empty capsids with externally bound Impβ and percent of particles with visible, externally bound Impβ results are on record in publication doi:10.1101/2021.08.16.456586.

Test [1] addresses Empty HBV Cp183 capsid (Hepatitis B Virus (strain not stated)) (UniProt P03147). Put plainly: charge detection mass spectrometry.
Test [2] has the same target. Put plainly: charge detection mass spectrometry. This is another data set of the same source.
Test [3] has the same target. Briefly: charge detection mass spectrometry. This is another data set of the same source.
Test [4] shares this target. Briefly: negative stain TEM, 2D class averages.

Like-named read-outs stand apart in the source and are kept apart here.

UniProt P03147, sequence (P03147 whole entry): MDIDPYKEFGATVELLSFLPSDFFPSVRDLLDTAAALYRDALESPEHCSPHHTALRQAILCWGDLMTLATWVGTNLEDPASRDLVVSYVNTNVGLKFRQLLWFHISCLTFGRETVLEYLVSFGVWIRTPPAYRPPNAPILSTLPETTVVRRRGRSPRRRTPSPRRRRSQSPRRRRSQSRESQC

As to “Importin β (from UniProt Q14974 1-876) (natural protein)”, the results for the stoichiometry N (Impβ per capsid) in test [1], in test [2] and in test [3] were 38, 38 and 64, respectively. Also, the percent of empty capsids with externally bound Impβ in test [4] came to 90%. The substance also showed a percent of particles with visible, externally bound Impβ in test [4] of 48%.
